Molecular target: mAb0077(OA)
Sequence (chain, as listed by the source, chain 1 of 3): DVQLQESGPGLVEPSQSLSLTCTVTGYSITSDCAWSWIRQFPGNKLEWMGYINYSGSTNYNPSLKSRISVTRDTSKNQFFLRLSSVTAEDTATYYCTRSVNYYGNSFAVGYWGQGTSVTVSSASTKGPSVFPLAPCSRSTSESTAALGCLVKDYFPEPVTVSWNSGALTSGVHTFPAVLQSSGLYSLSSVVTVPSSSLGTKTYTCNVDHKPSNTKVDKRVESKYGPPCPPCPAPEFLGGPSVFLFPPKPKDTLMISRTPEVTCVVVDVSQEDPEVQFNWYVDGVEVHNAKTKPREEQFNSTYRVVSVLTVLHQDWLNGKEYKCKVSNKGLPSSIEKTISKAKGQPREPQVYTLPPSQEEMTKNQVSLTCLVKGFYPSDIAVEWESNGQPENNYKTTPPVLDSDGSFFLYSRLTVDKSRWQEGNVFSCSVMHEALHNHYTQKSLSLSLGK
Sequence (chain, as listed by the source, chain 2 of 3): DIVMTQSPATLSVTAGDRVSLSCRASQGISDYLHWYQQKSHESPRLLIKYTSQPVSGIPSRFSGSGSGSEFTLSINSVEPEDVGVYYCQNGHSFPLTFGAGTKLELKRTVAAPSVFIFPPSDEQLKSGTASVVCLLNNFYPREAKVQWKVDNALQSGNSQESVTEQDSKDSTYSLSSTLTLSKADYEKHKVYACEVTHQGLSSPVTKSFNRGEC
Sequence (chain, as listed by the source, chain 3 of 3): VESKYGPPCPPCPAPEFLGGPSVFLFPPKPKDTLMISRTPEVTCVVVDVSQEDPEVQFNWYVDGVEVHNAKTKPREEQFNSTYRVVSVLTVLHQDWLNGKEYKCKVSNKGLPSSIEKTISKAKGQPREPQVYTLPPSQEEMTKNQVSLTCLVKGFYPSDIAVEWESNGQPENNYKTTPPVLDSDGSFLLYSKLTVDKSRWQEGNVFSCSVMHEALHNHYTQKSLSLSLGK

B1: recombinant human activated Factor VII (FVIIa) (protein)
chain 1: ANAFLEELRPGSLERECKEEQCSFEEAREIFKDAERTKLFWISYSDGDQCASSPCQNGGSCKDQLQSYICFCLPAFEGRNCETHKDDQLICVNENGGCEQYCSDHTGTKRSCRCHEGYSLLADGVSCTPTVEYPCGKIPILEKRNASKPQGR
chain 2: IVGGKVCPKGECPWQVLLLVNGAQLCGGTLINTIWVVSAAHCFDKIKNWRNLIAVLGEHDLSEHDGDEQSRRVAQVIIPSTYVPGTTNHDIALLRLHQPVVLTDHVVPLCLPERTFSERTLAFVRFSLVSGWGQLLDRGATALELMVLNVPRLMTQDCLQQSRKVGDSPNITEYMFCAGYSDGSKDSCKGDSGGPHATHYRGTWYLTGIVSWGQGCATVGHFGVYTRVSQYIEWLQKLMRSEPRPGVLLRAPFP
In the case of B1, the Km of FX activation by FVIIa/PS:PC with 200 nM antibody is reported as 0.089 µM, the Km of FX activation by TF-FVIIa with 200 nM antibody is reported as 0.0039 µM and the kcat of FX activation by FVIIa/PS:PC with 200 nM antibody is reported as 0.00026 s⁻¹.
